Reference: article PMC9098913, “In vitro reconstitution of Escherichia coli divisome activation” (Nature Communications, 2022)
Numbering of substitutions follows the chain as printed. Like-named read-outs stand apart in the source and are kept apart here.

B1: FtsZ (natural protein, E. coli, UniProt P0A9A6 1-383, looked up)
chain: MFEPMELTNDAVIKVIGVGGGGGNAVEHMVRERIEGVEFFAVNTDAQALRKTAVGQTIQIGSGITKGLGAGANPEVGRNAADEDRDALRAALEGADMVFIAAGMGGGTGTGAAPVVAEVAKDLGILTVAVVTKPFNFEGKKRMAFAEQGITELSKHVDSLITIPNDKLLKVLGRGISLLDAFGAANDVLKGAVQGIAELITRPGLMNVDFADVRTVMSEMGYAMMGSGVASGEDRAEEAAEMAISSPLLEDIDLSGARGVLVNITAGFDLRLDEFETVGNTIRAFASDNATVVIGTSLDPDMNDELRVTVVATGIGMDKRPEITLVTNKQVQQPVMDRYQQHGMAPLTQEQKPVAKVVNDNAPQTAKEPDYLDIPAFLRKQAD
modifications: Alexa Fluor 488 C5 maleimide on the cysteine of the added N-terminal residues AEGCGEL in the labelled form; unlabelled FtsZ also used
notes: FtsZ, E. coli, cloned into a pTB146-derived vector; Present as GTP-dependent treadmilling filaments in the assays; also called Alexa488-FtsZ; FtsZ filaments; source: E. coli BL21, purified (Ni-NTA, His6-SUMO cleaved with Ulp1, polymerisation with CaCl2 and GTP); not shown: His6-SUMO, N-terminal, cleaved; seven residues AEGCGEL for maleimide coupling, N-terminal, kept
B2: FtsZ: E. coli tubulin-like FtsZ forming treadmilling filaments; labelled with Alexa Fluor 488 (protein)
chain: B1 chain
modifications: Alexa Fluor 488 C5 maleimide on the cysteine of the added N-terminal residues AEGCGEL in the labelled form; unlabelled FtsZ also used; left off: His6-SUMO, N-terminal, cleaved | seven residues AEGCGEL

Assays:
FtsA WT = target: T1, FtsA WT (E. coli, UniProt P0ABH0 1-420, Cy3 or Cy5 at the N-terminus in the labelled form (CLEPTGG peptide labelled with sulfo-Cyanine 3- or 5-maleimide, conjugated to the 5xGly tag by sortagging; degree of labelling 65-70%); unlabelled …); assay: dual-colour TIRF microscopy on supported lipid bilayers; Cy5-FtsA WT or R286W (0.1-0.8 µM) and Alexa488-FtsZ (1.25 µM) on DOPC:DOPG bilayers; reaction buffer with 4 mM ATP, 4 mM GTP; conditions: both partners purified
T1 construct: FtsA, E. coli, cloned into vector pMAR19; called full-length in the results; also called wild-type FtsA; Cy5-FtsA WT; source: E. coli BL21, purified (Strep-Tactin, SUMO tag cleaved with Ulp1, SEC); not shown: TwinStrep-SUMO, N-terminal, cleaved; 5xGlycine tag, N-terminal, kept
T1 sequence (looked up): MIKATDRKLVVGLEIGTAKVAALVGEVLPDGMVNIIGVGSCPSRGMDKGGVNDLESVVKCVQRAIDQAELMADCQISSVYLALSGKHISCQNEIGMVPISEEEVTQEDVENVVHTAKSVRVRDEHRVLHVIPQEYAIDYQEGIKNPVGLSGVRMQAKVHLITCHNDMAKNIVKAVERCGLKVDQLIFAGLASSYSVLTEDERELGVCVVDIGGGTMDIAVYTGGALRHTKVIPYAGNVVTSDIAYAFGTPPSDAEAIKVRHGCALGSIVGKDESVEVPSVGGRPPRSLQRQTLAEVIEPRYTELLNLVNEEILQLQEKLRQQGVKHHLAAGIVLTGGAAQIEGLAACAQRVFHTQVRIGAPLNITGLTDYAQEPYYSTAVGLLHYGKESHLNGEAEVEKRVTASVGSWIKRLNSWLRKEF

FtsA R286W = target: T2, FtsA R286W (E. coli, UniProt P0ABH0 1-420, R286W, Cy3 or Cy5 at the N-terminus in the labelled form (labelled CLEPTGG peptide conjugated to the 5xGly tag by sortagging); unlabelled protein also used); assay: as above; conditions: both partners purified
T2 construct: also called Cy5-FtsA R286W; hyperactive mutant; source: E. coli BL21, purified (as the wild type: Strep-Tactin, SUMO tag cleaved with Ulp1, SEC); not shown: TwinStrep-SUMO, N-terminal, cleaved; 5xGlycine tag, N-terminal, kept
T2 sequence (looked up): T1 sequence (looked up) with R286W

FtsA WT (1-405)-6xHis = target: T3, FtsA WT (1-405)-6xHis (E. coli, UniProt P0ABH0 1-405, Cy3 or Cy5 at the N-terminus in the labelled form (sortagging as for native FtsA)); assay: dual-colour TIRF microscopy on supported lipid bilayers; Cy5-labelled His-tagged FtsA (0.5-1 µM, washed) attached to bilayers with varied Tris-NTA lipid density; 1.25 µM Alexa488-FtsZ added; conditions: both partners purified
T3 construct: FtsA, E. coli, residues 1-405; plasmid pNB4; Attached to membranes through Tris-NTA lipids by its His tag; also called FtsA-His6; FtsA WT-His6; source: E. coli BL21, purified (as native FtsA); not shown: TwinStrep-SUMO, N-terminal, cleaved; 5xGlycine tag, N-terminal, kept; His6, C-terminal, kept
T3 sequence (looked up): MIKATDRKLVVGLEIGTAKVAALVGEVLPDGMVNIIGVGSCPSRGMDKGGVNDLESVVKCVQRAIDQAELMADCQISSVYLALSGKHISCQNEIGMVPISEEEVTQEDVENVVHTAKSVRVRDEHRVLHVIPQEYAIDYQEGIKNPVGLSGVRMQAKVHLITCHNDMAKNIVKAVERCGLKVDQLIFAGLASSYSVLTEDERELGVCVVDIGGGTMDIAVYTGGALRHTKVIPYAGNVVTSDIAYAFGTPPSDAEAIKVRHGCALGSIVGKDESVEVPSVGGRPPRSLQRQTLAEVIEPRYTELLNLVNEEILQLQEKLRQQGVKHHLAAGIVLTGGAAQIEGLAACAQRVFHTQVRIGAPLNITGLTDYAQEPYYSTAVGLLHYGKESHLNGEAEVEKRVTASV

FtsA R286W (1-405)-6xHis = target: T4, FtsA R286W (1-405)-6xHis (E. coli, UniProt P0ABH0 1-405, R286W, Cy3 or Cy5 at the N-terminus in the labelled form (sortagging as for native FtsA)); assay: as above; conditions: both partners purified
T4 construct: FtsA, E. coli, residues 1-405 with R286W; the C-terminal amphipathic helix replaced by a 6xHistidine tag; plasmid pNB5; Attached to membranes through Tris-NTA lipids by its His tag; also called FtsA R286W-His6; R286W-His6; source: E. coli BL21, purified (as native FtsA); not shown: TwinStrep-SUMO, N-terminal, cleaved; 5xGlycine tag, N-terminal, kept; His6, C-terminal, kept
T4 sequence (looked up): T3 sequence (looked up) with R286W

FtsA = conditions: Fig. S2f, intensity after FtsNcyto addition
Procedure: Subsequently, the chamber was washed 6x with reaction buffer, to remove bulk peptide. To visualize colocalization with either FtsZ or FtsA, either a mix of FtsA and Alexa488-FtsZ or Cy3-FtsA and FtsZ was added. […] The time-lapse videos were recorded for 10 min after the addition, with one frame per 2 s.
Time-lapse videos were first intensity-corrected and contrast-enhanced to avoid bleaching effects and simplify subsequent analysis. To remove contributions of X–Y drift, the videos were processed with the Linear Stack Alignment with SIFT plugin. Proper alignment was checked with the 3TP align plugin (J. A. Parker; Beth Israel Deaconess Medical Center, Boston). Subsequently, regions of interest (ROIs) in the center of the stacks were chosen for colocalization analysis. The Pearson’s correlation coefficient (PCC) was quantified with the Image CorrelationJ 1o plugin. To extract information about the relative ratio of FtsZ/FtsA molecules (slope of linear regression), we also used the Image CorrelationJ 1o plugin. As an output, the plugin provides a scatterplot of FtsZ vs FtsA intensities, to which we fitted a linear slope y=k⋅x+d , where k is the slope and d the offset. The slope was used as an estimate for the ratio of FtsA molecules below FtsZ filaments.

FtsZ = conditions: with FtsNcyto-His and His-tagged FtsA
Description: coefficients were close to zero and we could not observe complete recovery of the

Row | Molecule | binding result (FtsA WT) | binding result (FtsA R286W) | binding result (FtsA WT (1-405)-6xHis) | binding result (FtsA R286W (1-405)-6xHis) | Mean Intensity Fold Change (FtsA; 0.10 µM) | Mean Intensity Fold Change (FtsA; 0.20 µM) | Mean Intensity Fold Change (FtsA; 0.40 µM) | mean recovery time of FtsZ (FtsZ)
1 | B1 | binds | binds | binds | binds | – | – | – | –
2 | B2 | – | – | – | – | 1.36 | 1.60 | 1.56 | around 9.5 s
